Measured values as given in the DeepSol protein solubility set.

Assay: soluble on expression in E. coli; label from the status in PepcDB or PDB records

Sequence | soluble on expression in E. coli
MPSKQDVLLLDYWDQWAEAYRINGKSINTVYRYKLFRKHLKSRFDGRKLNSIRPIEWQKFINDFAAGKDRKEKTTRKRPRERSKDIVTKMNSYVRGMVKAAINERILFSDFTFGTKTSGVRSSGKVKVLEHHHHHH | soluble
MGSDKIHHHHHHMGILVVGSVAFDSVETPFGRVENVLGGSATYFSTSASFFTDVSLVAVVGEDFPQEHVEFLNSRNIDLRGLAREGGKTFHWKGKYGYDLNEAQTLETHLNVFESFRPQIPAAYRDAEFLFLANIDPELQMEVLSQVEKPRVIACDTMNFWISSKPEALKAVIAKVDIFIINEGEARQFTQEANLTKAARKILAMGVKTLVIKRGEYGVLMFTDHSVFAAPAFPLEDVFDPTGAGDTFAGGFMGYLANTGDTSETGIRQAIIFGSVMASFNVEDFSLNRLKRLEYREIEDRYRSFKALTHFEGLAGG | not soluble
VRQYGDMPSRVVVLHGGPGGAGEVEPLARELGNRGHAVLEPFQTCQTVGGQVDELSSHIERFCAPPVTVIGWSWGAWLGCLLAAQRGMLVRRLILVGSGPFEESYASAIRTTKNSRLTKDQRKEISQLRPTEGDPAEVARFIALSDIADTYARDTSQQPFVAFDGAIHAAVWAEAVDMRRNGALLEAVCAIRCPVVAIHGDYDPRPSEGVQIPLRAALPSADFVQLERCGHKPWQETFAKADFYRALEA | not soluble
MLGYAFPSILGNLMSKIYQMDAVDWLKTLENCSVDLFITDPPYESLEKYRQIGTTTRLKESKSSSNQWFSVFPNTRFEELFREVYRVLKKGSHFYLFCDQETMFLAKPIAESVGFKFWKPIVWDKCAIGMGYHYRARYEFILFFEKGKRKLNDLSVPDVLEYKRVWKGYPTEKPVELLEVLIRQSSSENEIVADSFFGSGSTLIAANNLSRKYIGCDISSSAHEYFKNRA | not soluble
MGSDKIHHHHHHMPFSSAALHALLQPGVSERWQAVQRLLHPEMLVLANRAAERAAALLPQQWPLYELSFKSRRAIDRGGGRRDPITDYWFAFDRPPRGAGVMLTVSGIERTVTVGLQLWGVRRPQLAHLWSQARPVWEALIDRIEHEGQARFAGRRPPMTGMRWIDHYLNSRAHYLWAGFVYDWNALPTAERLIDDICALLPLNEALMEQAEIDLATTNTLRETPARYLTGAPSVAQIVMSIKRRGMIIDERTLHAFHLAVQARPLVILAGPSGSGKTWLTRLYADALIGIGEGQPNPCYLLVAVQPDWHSARDLLGYYNSLTGLYQPTPFLNFLLKAAADPDQTYIVCLDEMNLARPEYYLAPILSAMEAVEGLIDLGTPLAETPLAGGGVVRNPIRLPINLRLIGTINVDESTFALSDKVLDRANLIELGTVDMAALALTVSDSKRSGLADIERHPAPPDCCRKAGRLPRLARDTWLRWAGNRYERFRSTRSSDSAAPATALAR | not soluble
MGSDKIHHHHHHMLQTDNLIPDFINKQITQAVMSLRSGNVVAFPTETVYGLGADISQPQAIQKIFEIKGRPSSHPLIVHFANLSELEFWAENIPATAWILAQHFWPGPLTLILTKSNHIPLSVTGGQETVGLRIPRHPIALKLLEQLGSCKALAAPSANRFGFVSPTIADHVKNAFNDKIEVILDGGPCEVGLESTIVSCIDKDVTILRPGGISVLSIENLLQQKVSVKSQNKIRTPGSLSSHYATATPLEICQSSESLFSRSFDLLQQGIRTAVIIRSIHLIPMLNSDDKFHYILMPNDPVAFGKDLYATLRKLDDANFERILVEAPPDDLEWLAVADRLSRASYSFTSK | not soluble
MGMSATMGDSASIPGVFFADFGPAPPEITPEGYHEVELNKTKWVLPQWYNSLKPLGEGAYGVVCTAEYEPTGDRVAIKKFFRPFQSTIHAKRTYRELKLLRTLQHDNVLEMIDVFTPDPDASSLNNVYFVSVLMGSDLQNIMKIQRLTDEQIQLLIYQVLRGLKYIHSAGIIHRDLKPSNIAVNERCEVKVFLSFSQLSFLILSFFKILDFGLARAQDAEMTGYVATRWYRAPEIMLNWMHYTQTVDVWSVGCILAELVSGRPLFPGDDHIDQLTKIMSVVGTPKEEFWSKIQSEEARNYIKNRSPIIRQDFVTLFPMASPYALELLEMMLILDPDRRISVSSALRHDYLREYSVPNDEPVAMDTVINSIVTIDPAEERATTLSDWRELIWNEIRLFQNSARRLSFVSCTDTEEEPMKI | not soluble
MKLLLLAVCVIGFVACYEVVPRASALRPRGDVRRSPLPSLSAYAPFAKSLRPASTGIRRAPAVVTLPAQKANRSVKRAPAKPLPMTLPLLPPLLPLPQFIPVPVPVLSAEGLPTLPTLAPHTFPTFTPIPGMPTMPALTMPPSFQRLLGITTTTMKPAEKAMETVQTEESDNDTTSEARAHSAPTYSKDLNTIRSRLSKFVRGSEKKVTKAEDNADWIVPFH | not soluble
